Source: the DeepSol protein solubility set

experiment: soluble on expression in E. coli; label from the status in PepcDB or PDB records

Row | Sequence | soluble on expression in E. coli
1 | MSLTNKELKKNLEDCVNCRLCYKVCPMMNTFGESPKNILRDIDKNKISYDEIAYSCMLCNACTEACPKDINLKEMFQNLRIKSYRENLKNTSKKFNLKVVQNHQKGSFSKFLTSKNNHKKIKRVFIPGCSLSGYNNEIIFKIKDYLIENLGKVEILLKCCGKPSKDIGNLELFESNLNDIENNLKIKEVDEIIVACENCYKTFGSAFKDIKVITLWEVINEFGVPKELKNKYSDLKEEFALHDPCPIKKEEQIHEAVRSILKDLGIKIVEFEKNRSKTECCGCGGMVGVTNKELWLSQKNKRANSTECENIVSYCESCVNTFKSSDKNALHILDFIFNEDVINGKAKSQKNISTINQWINRIKLANKVGKEGHHHHHH | not soluble
2 | MAHHHHHHMSHIYDMLGINVEKLKTKKKQKEKISKKQLNFLKDNDNLFSLPTTSKIISLNNKNVSVWRLVKFRSKCRNDDLILTKWSKIGYKNDKKEFNEDKIEDDNTFEKFNKKINIIKYNDDLYYREIQPLNTGWTKEETDYLFNLCEKYDCHFIIVNDVYDIKYKRTIEEIKERFYTVTKKVMEDKFDQQIKLEEAKKIKNNNDILKLKEAKAKHPLIKFTYNMQADLERKNIIHKTYTVSKKDVMLEETTLENIKKFESKIKLELKKAADMKKLKKKFELTTEEIVPITKLPEEDKEAKNIYSARYYFQKLKIDISYFDKLDIYLKENNIEKPTIYTENICFLYGVLRTDVAILLNLRKKIEKLKQEREFWKGQMNNLEEEYLKKQQKT | not soluble
3 | AHHHHHHASAKWVCKICGYIYDEDAGDPDNGISPGTKFEELPDDWVCPICGAPKSEFEKLEDGSRGAYILLLYLPRNSIIKTKGKVFRLKKGYYAYVGSGMNSLEGRVLRHLRKDKKLHWHIDYLTLIATPLKAYLVPSPVRIEEELSKSLNMVGKVVKGFGSSDLSVPGNLFFFDKDPSEKIEEIVWAFLSRKPKSDDLRQDTS | soluble
4 | MIQSDLDLFGPQPQRLASHTVLLPGFALAETEALLDALRPVLRAAPFRHMYTPGGLRMAVALTNCGTLGWVSDQHGYRYSPSDPVSGQPWPALPPVLLALASRAAAMAGFDGFVPDACLVNHYLPGTRLSLHQDRDEQDFGQPIVSVSLGLPAVFLFGGLQRADKAQRIALSHGDVLVWGGVDRLRFHGVLPIKPGVHPRLGERRINLTLRKAGALEHHHHHH | not soluble
5 | QLPPGTFIPYGLSLESATGVNFLTPTSFWKQTRMHASKRKLLRNMELLIIDEVSMLRADTLDLIDFVLRRVRSNPRSFGGVQVLFIGDLMQLPPVVKPHEWE | not soluble
6 | FSPLSSQSSACCFAYIARPLPRAHIKEYFYTSGKCSNPAVVFVTRKNRQVCANPEKKWVREYINSLEMS | soluble
7 | MPLPDFHVSEPFTLGIELEMQVVNPPGYDLSQDSSMLIDAVKNKITAGEVKHDITESMLELATDVCRDINQAAGQFSAMQKVVLQAATDHHLEICGGGTHPFQKWQRQEVCDNERYQRTLENFGYLIQQATVFGQHVHVGCASGDDAIYLLHGLSRFVPHFIALSAASPYMQGTDTRFASSRPNIFSAFPDNGPMPWVSNWQQFEALFRCLSYTTMIDSIKDLHWDIRPSPHFGTVEVRVMDTPLTLSHAVNMAGLIQATAHWLLTERPFKHQEKDYLLYKFNRFQACRYGLEGVITDPHTGDRRPLTEDTLRLLEKIAPSAHKIGASSAIEALHRQVVSGLNEAQLMRDFVADGGSLIGLVKKHCEIWAGD | soluble
8 | WGYEAVGRFTSWEQIATYPIDNDRKGNKTVVPGDIMYKDVNGDGVINYMDERPIGYRSDSTPTLNFGINLSASWKGFDLAMDWTGSGMTSWQQQYETARPFQNDGNSPEEVFKDAWHLADIWDADSQLIPGKYPLIRLNNEETSAYDKSTFWLHNVKYIKLRNLEFGYTLPKRIVAKAGISNLRLYVSGTNLFSISNIPFMDPECIDSNGLDYPTMRVVNLGINLKF | not soluble
9 | MSLQLEYPLTNHMKRNMVLTKENQVIAYYRIRSETVGLTDFEKKRKTKKKVARTLKRLQENEGFEIVLLPVNADIRGKMGGMRQLVDKENHSVAVDKLMKTAQYLENEIGMVYEYIWLIGVPLVKKERSIDIKETFSTALNNLSEKVVKGLGLEVGVAEDWEEAYKDQEQEVYQNLSELLVERLTEDELYYYQAYQFLNNIQHEKKELLTSQNLDNLLANKITPFRGGLELSNEFGKSYIAHLPLGDCGVTIDGNHLLELVQKMSYPVSVKLQAGFAETKGQLALSGRSARARTRTKNIMEEAHLAGSKQKRKIVEGQHSLDDLDQKIDDDIPIIDWKAVLVISGNSKKQLRERKKNLMNRLDSLGIPLIRATFDNVYLFQATLLGNFQRFSTSNWQHTSTLETFSELNFFTSLHAGTKTGFYLGRVDATLEEKESRKQIVSGSKNIVYMNLLLANKQNIEGKKTNNPHWLVSGDTGNGKSVFSKWLFLYSSLLDVKVLYIDPKKEVRQQFMRTINDPEYQRKYPLDVAFIKTFNFVTLDVRKKENHGVLDPIVLFDETEAIATAKAMLNNINEDKWKMPHKTAINETVAEVVAERKAGKQVGFWHVIERLISHSEKDVHEMGRFLLSTIKGSILELAFSHGEVEGLSFEKKVTILEIEDLDLPTDRHDELDENQRLSVTLMFALGTFCSKFGSRNRKEETVTFFDEAWIFQSSPEGQKILKSMKRIGRSFNNFMVLITQSVNDVLDNGDGTGFGTVVCFDEVDNREGILRYLKLPVNEINLKWVSNMIQGQCLMKDMFNQVNRIVIDVIFEEWLELFETVDEGHHHHHH | soluble
10 | MGSDKIHHHHHHMINQIYQLTKPKFINVKYQEEAIDQENHILIRPNYMAVCHADQRYYQGKRDPKILNKKLPMAMIHESCGTVISDPTGTYEVGQKVVMIPNQSPMQSDEEFYENYMTGTHFLSSGFDGFMREFVSLPKDRVVAYDAIEDTVAAITEFVSVGMHAMNRLLTLAHSKRERIAVIGDGSLAFVVANIINYTLPEAEIVVIGRHWEKLELFSFAKECYITDNIPEDLAFDHAFECCGGDGTGPAINDLIRYIRPQGTILMMGVSEYKVNLNTRDALEKGLILVGSSRSGRIDFENAIQMMEVKKFANRLKNILYLEEPVREIKDIHRVFATDLNTAFKTVFKWEV | not soluble
11 | MAELRSFIFIDRLQPQTMSYLGTWIKGALPRANMAAQIIEVAPGLDIEGVTDVALKHAEVKAGILVVERQFGYLEFHGETGAVKAAADAALDYLGGDPDAAVRPEILASRIISSIDHQHAFLINRNKIGSMVLPGESLFVLEVAPASYAILATNEAEKAADVKVVDFRMIGATGRVYLSGTEADVRQAADAARDALAVLQGA | soluble
12 | GPGSMRWPAEPGCGSQGPATPERANKLRFLLVGKTDSGNHPSGWLVARTVRYSTADAEIGPCKGLISHDCKLLLLLCGYFERNPGPLRFVQQNVNGVSAVKLSSLLALDADVYLLPEVKKLREASRICKVPPYTVYCSPPNARGGRVAILVHQRSSIQTRSVTWKALPNDTGIKAVTVKL | not soluble
13 | MGSDKIHHHHHHMPNIPLRVNSLATEHPNNAQNSDKMPTFDAIFSHLSAIASHNSHQIIALLPSSDANWPAALIAERLTQAGSKQHLQKQHLHLHLFAQHQASWLKALAESETLASPAKEQIKAICDARVSGSHRLKLVNARLIIDIHLGDPLTQLKDLVSPSLASQAIQGWLANTQATDEALIWQMARLSQDNAEFLLLENNDVNLDKTSNNANTNLLTQLIIKAGFTCYRLNLSLKDDQLVTLAEKPSLASLEIAMVERRALRRQQLDKFAFNPLTQGREGETAIIGGGVASANLALSLAERGKKVSFFCMDKAPGEQASGNKQGAIYPLLTPEHGSLSHYFLLGYLFSRQRIKQLLESGHEIPHDFCGVLQTGHDERSHKRLTKIINAQPWAESIARPVDALQATALAGVTIEHQGIYYPLAGWVSPQ | not soluble
14 | MQSLNVNGTLMTYSESGDPHAPTLFLLSGWCQDHRLFKNLAPLLARDFHVICPDWRGHDAKQTDSGDFDSQTLAQDLLAFIDAKGIRDFQMVSTSHGCWVNIDVCEQLGAARLPKTIIIDWLLQPHPGFWQQLAEGQHPTEYVAGRQSFFDEWAETTDNADVLNHLRNEMPWFHGEMWQRACREIEANYRTWGSPLDRMDSLPQKPEICHIYSQPLSQDYRQLQLEFAAGHSWFHPRHIPGRTHFPSLENPVAVAQAIREFLQA | soluble
15 | MKKYILSLDQGTTSSRAILFNKKGEIVHSAQKEFTQHFPKPGWVEHNAQEIWGSILAVIATCLSEADVKPEQIAGIGITNQRETAVVWDKTTGKPIYNAIVWQSRQTAEICDELKEKGYSEMVREKTGLLIDAYFSGTKVKWILDNVEGAREKAENGDLLFGTIDTWLVWKLSGGKAHVTDYSNASRTLMFNIHDLQWDDELLDMLTVPKSMLPEVRPSSEVYGETIDYHFFGQNVPIAGVAGDQQAALFGQACFGEGMAKNTYGTGCFMLMNTGEKAVASEHGLLTTIAWGIDGKVNYALEGSIFVAGSAIQWLRDGMRMFKDASESEVYASRVESTDGVYVVPAFVGLGTPYWDSEVRGAMFGVTRGTTKEHFIRATLESLAYQIKDVLCAMEADSGIELKTLRVDGGAVKNNFLMKFQSDILDVPVERPVINETTALGAAYLAGLAVGYWKNQDEIKEQWHMDKRFEPTMEAETSEELYAGWKKAIEATKAFK | not soluble
16 | MTRLTVFKPRSLVSILMFTTVWAVGSASASTLDLEAQRAQYDKAQRWLDEKNVAQYQRIRKQIDSYPLTPYLDYRAFLIDLGSKPPIAVRNFIDSHKEYPFSARIAAPYLDALARSKKWSALLQFQTQLPNGETYQCHYYNAKLQTGKRNEAFEGAKKLWLNGASIADACDPLFAEWDRVGGLSDDWVLKRALLAFEGRNRNLIVYLQKKLDGKKSQAKAQGMLELFDKPERVLAYSRKASQDPINQKLAELALQKWARSEPQEAQAVFNDVAKAQGWNQEQKGRVARFIAIRLMDTEEAAIAKWRDEVTRTSQDVRLIEARIRLALRENDWRGLSQWIAVLPEQERKTLRWQYWQGRSEIALGKKKEGTERLKALLGQRSFYSVAAAKILQQSVNYPTSTVTLDMKQIKAHKKALARIDELIALDKVPAAKSEWRWLLDRVSQKEKEMLAAYAADSGWYQMTIAATISASLWDNNQLRFPVVHQNLFTLHGRKNGVDPITLMSLARQESALNPDAQSPVGARGLMQIMPDTARYTARKYQLSYSNPDELYQVGKNIEIGSRYLSSLLERYDQNRILAFAAYNAGPSRVDSWLKRSQGKLDAYGFIEAIPFAETRGYVQNILMFETYYRDLMGVQGRFLNEHELNTKY | soluble
17 | MGSDKIHHHHHHGNLEEMNIDPDNATQTHPKLLLTQICMNAFKRGTDGMYATKKVIQADGESADQYYKWTRGSFGYYDNLRNVQKMGEEAERVNAPVYTALTKFFRAYYFYELTLRFGDIPYSQALKGEKEEIYTPEYDAQEDVFAGILQELREADEILANDASVIDGDIIYNGNSTQWRKLINSFRLKVLMTLSNHTTVGNINIASEFKNIATNSPLMNSLADNGQLVYLDQQGNRYPQFNAQWSGYYMDDTFIQRMRERRDPRLFIFSAQTNKGKTEGKPIDDFSSYEGGDPAAPYSDAIIKVSEGTISPINDRFRTDPIVEPTMLMGYAELQQILAEAVVRGWISGNAQTYYEKGIRASFSFYETHAKDYAGYLNENAVAQYLKEPLVDFTQASGTEEQIERIIMQKYLVTFYQGNWDSFYEQLRTGYPDFRRPAGTEIPKRWMYPQGEYDNNGTNVETAITRQFGAGNDKINQATWWQKKS | not soluble
18 | MDTSSFETDLSLFKYDDLEALPDEYRELTPTARTERIEAARAELGDDVVVLGHNYQRREIVEHADFVGDSYQLSKEAANADADYVIFGGVTFMAESADIITDDSQSVILPSMEASCPMAGMAEALQVDAAWADITAAAPDETIIPITYMNSYADLKAFCAEQGGLVCTSSNAHRAFEWAFERGDKVLFLPDKHLGENTAHRLGMADATVEWDPWAAEGKTAEEVADADIVLWDGYCQVHERFTPEHVAEVRADHEDANVVVHPECRREVVEAADVVGSTATITETVADADPGETWAIGTEIHLANHLQRWHPEVNVVPLCGDACMDCNAMRQIDPNYLAWVLEELVEGRERNVIEVDSEEAELAQVGLDRMLELLEHHHHHH | not soluble
